T1: Recombinant CD7 protein (ACRO biosystems, Cat No CD-H52H7), labeled with Alexa Fluor 647 (UniProt P09564 26-180, limits assumed, Alexa Fluor 647 NHS Ester label, sites not stated)
T1 construct: Bought protein; also called fluorescently labelled CD7; Alexa Fluor 647-labeled CD7
T1 sequence (looked up): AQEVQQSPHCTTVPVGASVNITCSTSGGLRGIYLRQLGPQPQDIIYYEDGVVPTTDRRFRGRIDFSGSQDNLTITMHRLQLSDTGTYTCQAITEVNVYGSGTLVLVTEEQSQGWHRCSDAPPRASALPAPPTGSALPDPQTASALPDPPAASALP

B1: 142.9 murine anti-CD7 mAb (antibody, V domains shown)
VH: QVQLQQSGAELVRPGTSVKISCKASGYTFTNYWLGWVKQRPGHGLEWIGDFYPGSIYTNYNENFQGKATLTADTSSSTAYMQLSSLTSEDSAVYFCAREGDYYGSGHFDYWGQGTTLTVSS
VL: EILLTQSPAIIAASPGEKVTITCSARSSVSYMNWYQQKSGSSPKIWIYGISNLASGVPARFSGSGSGTSFSFTINSMEAEDVAYYYCQLRSSYSRTFGGGTKLEIK
notes: Murine monoclonal antibody, tested as hybridoma culture supernatant; also called CD7_142.9
B2: 142.24 murine anti-CD7 mAb (antibody, V domains shown)
VH: QLVQSGPEVKKPGETVKISCKASGYSFTHYGVNWVKQAPGKGLKWMGWINTNTGKPTYAEDFKGRFAFSLETSARTAYLQINNLKNEDTATYFCARWSTTVVAPYFDVWGAGTTVTVSS
VL: DILLTQSPAILSVSPGERVSFSCRASQNIGTSIHWFQQRSNGSPSLLIKYASESMSGIPSRFSGSGSGTDFTLSINSVEPEDIADYYCQQSNRWPYTFGGGTKLEIK
notes: Murine monoclonal antibody, tested as hybridoma culture supernatant; also called CD7_142.24
B3: 124.1D1 murine anti-CD7 mAb (antibody, V domains shown)
VH: DVQLQESGPGLVKPSQSLSLTCTVTGYSITSDYAWNWIRQFPGNKLEWLGYISYSGSTSYNPSLKSRISITRDTSKNQFFLQLNSVTTEDTATYYCAKSQLGRWAMDYWGQGTSVTVSS
VL: DILLTQSPAILSVSPGERVSFSCRASQSIGTSIHWYQQRTNDSPRLLIKYASESISGIPSRFSGSGSGTDFTLNINSVESEDIADYYCQQSISWPLTFGPGTKLELK
notes: Murine monoclonal antibody, tested as hybridoma culture supernatant; also called CD7_124.1D1

The text below walks through data of patent publication EP4559937A1 (Universitat de Barcelona, dated 2025).

The assay has as its target T1, Recombinant CD7 protein (ACRO …). As to the kind of experiment: microfluidic antibody-affinity profiling (MAAP), Fluidity One-W, hybridoma supernatant with Alexa Fluor 647-labelled CD7, Bayesian inference.
Usually Kd stands for the free concentration of one partner at which half of the binding sites on the other are occupied at equilibrium, for simple one-to-one binding. As for B1, the Kd amounted to 52.4 nM. The same measure for B2: 22.4 nM.

With B3, the Kd was determined as 13.6 nM.
